Source: patent publication US20210369842A1 (Genmab, published 2021)

Experiments:
[1] = target: T1, Shuffle 1; experiment: flow cytometry on transfected HEK293-T17 cells, 1 µg/mL antibody, APC-labeled AffiniPure F(ab')2 fragment as secondary
T1 construct: Expressed on transiently transfected HEK293-T17 cells; also called Human CD137 shuffle 1 (amino acids 162-186 of wild boar CD137); shuffle construct 1
T1 receptor chain: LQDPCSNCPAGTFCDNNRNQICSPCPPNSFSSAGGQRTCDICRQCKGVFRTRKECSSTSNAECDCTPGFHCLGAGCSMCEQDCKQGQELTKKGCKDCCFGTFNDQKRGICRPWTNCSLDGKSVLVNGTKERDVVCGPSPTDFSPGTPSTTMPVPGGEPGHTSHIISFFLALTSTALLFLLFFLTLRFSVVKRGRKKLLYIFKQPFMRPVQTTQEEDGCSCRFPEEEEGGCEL
Description: (§1) 3×10⁶ HEK293T-17 cells were seeded in T75 culture flasks (Greiner Bio-One, cat. no. 658175) in 20 mL RPMI 1640 GlutaMAX medium containing 10% FCS (Biochrom, cat. no. S 0115). After O/N incubation, cells were transiently […] with expression vectors encoding the shuffle constructs or the wild boar, African elephant or human CD137 downstream of a constitutively active human elongation factor-1 alpha (EF-1 alpha) promotor using TransIT®-LT1 Transfection Reagent, Mirus Bio (VWR International, cat. no. 731-0029), according to the manufacturer's instructions. The next day, cells were harvested using 1.5 mL Accutase (Sigma Aldrich, cat. no. A6964) (incubation at 37° C. for 5 min.) and flow cytometry was performed, essentially as described supra, to measure surface expression of the shuffle constructs and the human, African elephant and wild boar CD137 and to measure binding of the antibody clones to the different shuffle constructs. […] Binding of the different CD137 antibody clones to cells expressing the shuffle constructs was measured by incubation of the transduced cells with 1 μg/mL of the antibody clones, followed by APC-labeled AffiniPure F(ab′)2 Fragment (1:50 final dilution; Jackson, cat. no. 109-136-127).

[2] = target: T2, Shuffle 2; experiment: as above
T2 construct: Expressed on transiently transfected HEK293-T17 cells; also called Human CD137 shuffle 2 (amino acids 139-161 of wild boar CD137); shuffle construct 2
T2 receptor chain: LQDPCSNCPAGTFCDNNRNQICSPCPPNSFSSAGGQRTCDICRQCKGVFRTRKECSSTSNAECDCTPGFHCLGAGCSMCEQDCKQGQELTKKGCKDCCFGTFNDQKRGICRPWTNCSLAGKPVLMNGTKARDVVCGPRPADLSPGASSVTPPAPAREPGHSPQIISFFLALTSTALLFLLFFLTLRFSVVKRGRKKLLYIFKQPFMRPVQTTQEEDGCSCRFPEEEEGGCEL
Description: as §1

[3] = target: T3, Shuffle 3; experiment: as above
T3 construct: Expressed on transiently transfected HEK293-T17 cells; also called Human CD137 shuffle 3 (amino acids 115-138 of wild boar CD137); shuffle construct 3
T3 receptor chain: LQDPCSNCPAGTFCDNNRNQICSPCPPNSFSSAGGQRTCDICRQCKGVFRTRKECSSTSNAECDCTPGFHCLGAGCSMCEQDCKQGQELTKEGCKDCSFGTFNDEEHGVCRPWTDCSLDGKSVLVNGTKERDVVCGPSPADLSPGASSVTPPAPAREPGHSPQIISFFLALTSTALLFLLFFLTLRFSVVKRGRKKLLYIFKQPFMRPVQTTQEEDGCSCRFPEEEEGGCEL
Description: as §1

[4] = target: T4, Shuffle 4; experiment: as above
T4 construct: Expressed on transiently transfected HEK293-T17 cells; also called Human CD137 shuffle 4 (amino acids 89-114 of wild boar CD137); shuffle construct 4
T4 receptor chain: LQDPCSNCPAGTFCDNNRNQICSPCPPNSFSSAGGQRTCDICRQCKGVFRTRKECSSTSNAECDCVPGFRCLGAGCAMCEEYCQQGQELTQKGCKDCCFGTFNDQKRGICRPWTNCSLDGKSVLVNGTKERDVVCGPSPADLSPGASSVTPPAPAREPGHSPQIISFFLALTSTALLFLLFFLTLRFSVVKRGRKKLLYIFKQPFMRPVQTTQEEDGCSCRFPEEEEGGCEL
Description: as §1

[5] = target: T5, African elephant (Loxodonta africana) CD137 (African elephant (Loxodonta africana)); experiment: flow cytometry on transfected HEK293T-17 cells
T5 construct: Expressed on transfected HEK293T-17 cells; Amino acids 1-23 are stated as the predicted signal peptide; also called elephant CD137
T5 chain: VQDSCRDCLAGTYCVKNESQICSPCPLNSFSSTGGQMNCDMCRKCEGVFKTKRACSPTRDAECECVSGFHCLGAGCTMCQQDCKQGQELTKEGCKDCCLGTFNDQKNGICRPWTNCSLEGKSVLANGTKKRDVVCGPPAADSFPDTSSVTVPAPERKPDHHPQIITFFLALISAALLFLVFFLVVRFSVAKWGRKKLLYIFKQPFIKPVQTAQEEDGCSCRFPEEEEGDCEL
Description: as §1

[6] = target: T6, Human CD137 shuffle 5 (amino acids 48-88 of African elephant CD137) (human CD137 with an African elephant …, UniProt Q07011 24-255); experiment: flow cytometry on transfected HEK293T-17 cells
T6 construct: also called shuffle construct 5
T6 chain: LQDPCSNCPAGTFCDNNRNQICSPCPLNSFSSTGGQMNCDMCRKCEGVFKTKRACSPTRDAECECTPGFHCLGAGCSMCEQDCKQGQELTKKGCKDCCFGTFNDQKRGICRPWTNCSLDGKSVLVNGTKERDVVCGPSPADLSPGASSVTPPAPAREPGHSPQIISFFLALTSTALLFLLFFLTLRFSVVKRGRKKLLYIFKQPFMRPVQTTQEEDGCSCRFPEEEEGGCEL
Description: as §1

[7] = target: T7, Wild boar (Sus scrofa) CD137 (wild boar (Sus scrofa)); experiment: flow cytometry on transfected HEK293T-17 cells
T7 construct: Expressed on transfected HEK293T-17 cells; Amino acids 1-23 are stated as the predicted signal peptide; also called wild boar CD137
T7 chain: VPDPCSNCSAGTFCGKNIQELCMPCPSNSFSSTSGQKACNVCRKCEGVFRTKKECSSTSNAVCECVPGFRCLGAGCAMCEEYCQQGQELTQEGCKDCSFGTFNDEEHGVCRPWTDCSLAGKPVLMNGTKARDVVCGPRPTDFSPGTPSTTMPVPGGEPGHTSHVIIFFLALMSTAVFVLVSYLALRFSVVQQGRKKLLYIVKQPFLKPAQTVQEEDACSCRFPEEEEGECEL
Description: as §1

[8] = target: T8, Human CD137 (human, UniProt Q07011 24-255); experiment: flow cytometry on HEK293T-17 cells transfected with human CD137, 1 µg/mL antibody
T8 construct: Amino acids 1-23 are stated as the predicted signal peptide; also called hCD137 wt; 4-1BB
Description: as §1

B1: CD137-009 (chimeric rabbit/human CD137 antibody) (antibody, V domains shown)
VH: QSLEESGGRLVTPGTPLTLTCTVSGFSLNDYWMSWVRQAPGKGLEWIGYIDVGGSLYYASWAKGRFTISRTSTTVDLKMTSLTTEDTATYFCARGGLTYGFDLWGPGTLVTVSS
VL: DIVMTQTPASVSEPVGGTVTINCQASEDISSYLAWYQQKPGQRPKRLIYGASDLASGVPSRFSASGSGTEYALTISDLESADAATYYCHYYATISGLGVAFGGGTEVVVK
notes: also called antibody CD137-009; rabbit anti-CD137-009
Question: Does B1 bind [1]?
Answer: binds

Question: Does B1 bind [2]?
Answer: binds

Question: Does B1 bind [3]?
Answer: binds

Question: Does B1 bind [4]?
Answer: binds

Question: Does B1 bind [5]?
Answer: no binding (tested: 1 µg/mL)

Question: Does B1 bind [6]?
Answer: no binding (tested: 1 µg/mL)

Question: Does B1 bind [7]?
Answer: no binding (tested: 1 µg/mL)

Question: Does B1 bind [8]?
Answer: binds
